“Also recorded” adds a separate entry of the source. Residues, ends and D or L forms follow the SMILES beside them. No end group written: not given here.

In assay [1] the target is BAM1-GFP (transient expression in N. benthamiana) (Arabidopsis thaliana) (UniProt O49545). The experiment in a line: radioligand binding.
Assay [2] concerns the target BAM2-GFP (transient expression in N. benthamiana) (Arabidopsis thaliana) (UniProt Q9M2Z1). The experiment in a line: radioligand binding.
Assay [3] deals with CLV1-GFP (transient expression in N. benthamiana) (Arabidopsis thaliana) (UniProt Q9SYQ8). As to the kind of experiment: radioligand binding.
In assay [4] the target is CLV2-MYC (transient expression in N. benthamiana) (Arabidopsis thaliana) (UniProt O80809). The experiment in a line: radioligand binding.
Assay [5] relates to CLV1. The note with it: truncated CLV1 LRR domain expressed in tobacco BY-2 cells; ref Ogawa et al. 2008; cited from earlier work.
In assay [6] the test system is Arabidopsis plants. The note with it: synthetic peptides treating Arabidopsis plants; ref Kinoshita et al. 2007; cited from earlier work.
The conditions of assay [7]: stated in peptide description, no test or reference named; cited from earlier work.
Assay [8] deals with CLV1. As to conditions: cold competitor to radiolabeled CLV3 CLE; ref Kondo et al. 2008, Ogawa et al. 2008; cited from earlier work.
In assay [9] the target is T1, CLV1-FLAG (transient expression in N. benthamiana) (Arabidopsis thaliana, UniProt Q9SYQ8 25-980).
T1 sequence (looked up): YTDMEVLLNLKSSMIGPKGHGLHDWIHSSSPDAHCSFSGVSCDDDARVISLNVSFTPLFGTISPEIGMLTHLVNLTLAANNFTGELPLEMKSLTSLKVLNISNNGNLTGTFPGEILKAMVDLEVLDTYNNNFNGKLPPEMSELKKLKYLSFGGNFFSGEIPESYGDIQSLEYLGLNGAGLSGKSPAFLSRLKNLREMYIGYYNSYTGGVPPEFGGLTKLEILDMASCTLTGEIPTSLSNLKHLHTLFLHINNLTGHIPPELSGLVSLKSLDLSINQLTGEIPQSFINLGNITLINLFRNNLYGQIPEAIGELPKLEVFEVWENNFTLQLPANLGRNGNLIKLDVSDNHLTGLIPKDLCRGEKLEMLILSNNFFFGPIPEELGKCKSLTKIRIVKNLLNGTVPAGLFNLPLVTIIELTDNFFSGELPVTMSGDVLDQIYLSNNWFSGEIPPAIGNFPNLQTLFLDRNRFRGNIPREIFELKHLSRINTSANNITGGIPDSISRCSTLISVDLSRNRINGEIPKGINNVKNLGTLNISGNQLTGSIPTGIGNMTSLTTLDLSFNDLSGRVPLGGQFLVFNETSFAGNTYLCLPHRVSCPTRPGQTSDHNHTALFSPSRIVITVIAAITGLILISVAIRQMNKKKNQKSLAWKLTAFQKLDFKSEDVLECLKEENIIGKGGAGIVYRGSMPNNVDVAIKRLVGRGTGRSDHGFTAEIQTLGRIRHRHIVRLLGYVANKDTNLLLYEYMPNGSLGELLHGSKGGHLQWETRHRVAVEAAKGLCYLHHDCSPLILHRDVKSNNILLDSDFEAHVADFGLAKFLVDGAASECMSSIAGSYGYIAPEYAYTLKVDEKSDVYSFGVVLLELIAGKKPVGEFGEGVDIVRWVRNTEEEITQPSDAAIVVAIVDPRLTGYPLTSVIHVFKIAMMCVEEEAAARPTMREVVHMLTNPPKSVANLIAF
As to the kind of experiment: co-IP.

Assay [10] concerns the target T2, CRN-GFP (transient expression in N. benthamiana) (Arabidopsis thaliana, UniProt Q9LYU7 34-401).
T2 sequence (looked up): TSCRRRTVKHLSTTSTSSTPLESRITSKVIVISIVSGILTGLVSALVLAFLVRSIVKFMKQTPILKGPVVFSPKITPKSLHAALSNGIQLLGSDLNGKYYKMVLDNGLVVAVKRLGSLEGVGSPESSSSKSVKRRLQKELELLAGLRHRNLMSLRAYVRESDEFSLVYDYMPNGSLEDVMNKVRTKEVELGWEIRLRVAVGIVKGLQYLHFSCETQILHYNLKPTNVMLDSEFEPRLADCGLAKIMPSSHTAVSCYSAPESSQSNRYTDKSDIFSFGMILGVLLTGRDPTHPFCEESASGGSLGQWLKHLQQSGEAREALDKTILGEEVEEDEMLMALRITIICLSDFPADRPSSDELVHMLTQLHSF
The experiment in a line: co-IP.

Assay [11] concerns the target T3, CLV1-GFP (transient expression in N. benthamiana) (Arabidopsis thaliana, UniProt Q9SYQ8 25-980).
T3 sequence (looked up): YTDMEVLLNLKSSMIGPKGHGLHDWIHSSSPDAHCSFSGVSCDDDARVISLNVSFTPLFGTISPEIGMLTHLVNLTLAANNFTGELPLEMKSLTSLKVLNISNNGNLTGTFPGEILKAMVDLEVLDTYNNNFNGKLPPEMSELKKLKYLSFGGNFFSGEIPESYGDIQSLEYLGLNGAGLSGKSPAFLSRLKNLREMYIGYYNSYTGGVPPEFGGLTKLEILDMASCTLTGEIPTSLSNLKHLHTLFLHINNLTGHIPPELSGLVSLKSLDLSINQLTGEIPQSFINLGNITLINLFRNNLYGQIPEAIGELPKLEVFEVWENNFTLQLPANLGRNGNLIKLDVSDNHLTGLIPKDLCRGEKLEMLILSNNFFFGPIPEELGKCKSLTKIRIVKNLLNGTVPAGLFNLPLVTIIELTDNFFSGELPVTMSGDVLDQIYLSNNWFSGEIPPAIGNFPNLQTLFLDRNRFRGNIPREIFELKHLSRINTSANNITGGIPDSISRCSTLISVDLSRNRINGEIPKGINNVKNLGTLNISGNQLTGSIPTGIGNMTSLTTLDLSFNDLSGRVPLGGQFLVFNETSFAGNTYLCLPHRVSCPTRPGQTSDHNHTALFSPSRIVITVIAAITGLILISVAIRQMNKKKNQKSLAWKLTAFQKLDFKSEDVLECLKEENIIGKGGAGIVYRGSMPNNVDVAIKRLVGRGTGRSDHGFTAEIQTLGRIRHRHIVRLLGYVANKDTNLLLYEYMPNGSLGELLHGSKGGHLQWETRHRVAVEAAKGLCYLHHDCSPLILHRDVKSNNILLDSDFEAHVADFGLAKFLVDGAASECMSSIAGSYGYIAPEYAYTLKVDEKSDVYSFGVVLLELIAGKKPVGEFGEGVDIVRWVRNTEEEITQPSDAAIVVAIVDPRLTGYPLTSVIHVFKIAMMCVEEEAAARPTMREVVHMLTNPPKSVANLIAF
As to the kind of experiment: co-IP.

BAM1-GFP (transient expression in N. benthamiana) (Arabidopsis thaliana), sequence (O49545 20-1003): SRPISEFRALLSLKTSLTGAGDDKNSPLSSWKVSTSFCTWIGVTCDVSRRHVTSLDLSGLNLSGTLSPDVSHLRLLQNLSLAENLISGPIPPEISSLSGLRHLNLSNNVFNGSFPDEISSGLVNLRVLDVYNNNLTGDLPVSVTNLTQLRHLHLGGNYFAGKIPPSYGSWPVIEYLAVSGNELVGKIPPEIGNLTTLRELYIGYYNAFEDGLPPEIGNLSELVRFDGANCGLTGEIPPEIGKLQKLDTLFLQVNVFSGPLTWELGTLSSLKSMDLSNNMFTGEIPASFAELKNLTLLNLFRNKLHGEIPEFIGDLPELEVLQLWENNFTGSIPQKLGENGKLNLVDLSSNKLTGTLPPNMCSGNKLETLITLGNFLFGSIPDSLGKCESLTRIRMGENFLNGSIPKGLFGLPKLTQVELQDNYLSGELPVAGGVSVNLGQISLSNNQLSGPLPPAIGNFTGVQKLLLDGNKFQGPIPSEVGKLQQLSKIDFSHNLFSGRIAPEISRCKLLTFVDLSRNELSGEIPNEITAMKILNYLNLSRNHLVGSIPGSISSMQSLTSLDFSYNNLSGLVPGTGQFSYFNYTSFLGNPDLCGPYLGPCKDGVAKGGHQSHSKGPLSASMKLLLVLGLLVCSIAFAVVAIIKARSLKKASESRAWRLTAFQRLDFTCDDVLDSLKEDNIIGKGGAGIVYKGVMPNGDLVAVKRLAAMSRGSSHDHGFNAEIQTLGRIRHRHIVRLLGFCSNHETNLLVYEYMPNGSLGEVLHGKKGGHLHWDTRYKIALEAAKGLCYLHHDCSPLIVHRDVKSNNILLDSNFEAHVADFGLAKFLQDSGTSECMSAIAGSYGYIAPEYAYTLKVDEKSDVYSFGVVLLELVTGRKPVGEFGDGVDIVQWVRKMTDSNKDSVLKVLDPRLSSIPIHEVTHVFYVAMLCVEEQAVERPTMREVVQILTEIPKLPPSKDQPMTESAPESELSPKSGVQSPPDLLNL

As for 125I-radiolabeled CLV3 CLE peptide, the dissociation constant (Kd) in assay [1] was 26 nM; in assay [2], 36 nM; in [3] it was 30 nM; in [4] it was 32 nM. In the case of `CC(C)C[C@H](NC(=O)[C@@H]1CCCN1C(=O)[C@H](CC(=O)O)NC(=O)[C@@H]1CCCN1C(=O)CNC(=O)[C@H](CO)NC(=O)[C@@H]1CCCN1C(=O)[C@@H](NC(=O)[C@@H](NC(=O)[C@@H](N)CCCNC(=N)N)[C@@H](C)O)C(C)C)C(=O)N[C@@H](Cc1c[nH]cn1)C(=O)N[C@@H](Cc1c[nH]cn1)C(=O)O` [CLV3 CLE] (H-RTVPSGPDPLHH-OH), the “binding to CLV1 (LRR / extracellular domain)” value in assay [5] is recorded as “bind to the truncated CLV1 LRR domain; also recorded: binds to the CLV3 CLE peptide through its extracellular domain”. Consider “CLE25: CLE peptide (RKVPNGPDPIHN; ends and bridges not checked; UniProt Q8LFL4 58-69, looked up)”, for which the “effect on size of the SAM” value in assay [6] is reported as “caused reduced size of the SAM”. In the case of “CLV3L: CLV3L (Arg70-Pro96) which includes the full CLV3 CLE domain plus the extended C-terminal tail and is partially functional (RTVPSGPDPLHHHVNPPRQPRNNFQLP; ends and bridges not checked; UniProt Q9XF04 70-96, looked up, fragment)”, in [7], the “functionality of the peptide” value is recorded as “partially functional”.

In the case of “CLV3S: CLV3S (Thr71-His81) which only contains a portion of the CLE domain and is nonfunctional (TVPSGPDPLHH; ends and bridges not checked)”, the “competition of CLV3S at CLV1, previously reported” value in assay [8] is “unable to compete”. In assay [7], the “functionality of the peptide” value was “nonfunctional”.

B1: CLV2-MYC (transient expression in N. benthamiana) (receptor, Arabidopsis thaliana, UniProt O80809 26-720, looked up)
chain: QLPDLDPQDKASLLIFRVSIHDLNRSLSTWYGSSCSNWTGLACQNPTGKVLSLTLSGLNLSSQIHPSLCKLSSLQSLDLSHNNFSGNIPSCFGSLRNLRTLNLSRNRFVGSIPATFVSLKELREVVLSENRDLGGVVPHWFGNFSMNLERVDFSFCSFVGELPESLLYLKSLKYLNLESNNMTGTLRDFQQPLVVLNLASNQFSGTLPCFYASRPSLSILNIAENSLVGGLPSCLGSLKELSHLNLSFNGFNYEISPRLMFSEKLVMLDLSHNGFSGRLPSRISETTEKLGLVLLDLSHNSFSGDIPLRITELKSLQALRLSHNLLTGDIPARIGNLTYLQVIDLSHNALTGSIPLNIVGCFQLLALMISNNNLSGEIQPELDALDSLKILDISNNHISGEIPLTLAGLKSLEIVDISSNNLSGNLNEAITKWSNLKYLSLARNKFSGTLPSWLFKFDKIQMIDYSSNRFSWFIPDDNLNSTRFKDFQTGGGEGFAEPPGKVEIKISAAVVAKDELSFSYNLLSMVGIDLSDNLLHGEIPEALFRQKNIEYLNLSYNFLEGQLPRLEKLPRLKALDLSHNSLSGQVIGNISAPPGLTLLNLSHNCFSGIITEKEGLGKFPGALAGNPELCVETPGSKCDPANIDASQEEIYQNELVEGPISIWIFCLSAFISFDFGVLGIFCSARARSYILQTKA
For the molecule B1, the percent co-immunoprecipitated in assay [9] was 2.5%; in [10], approximately 20%.

B2: BAM2-FLAG (transient expression in N. benthamiana) (receptor, Arabidopsis thaliana, UniProt Q9M2Z1 23-1002, looked up)
chain: KPITELHALLSLKSSFTIDEHSPLLTSWNLSTTFCSWTGVTCDVSLRHVTSLDLSGLNLSGTLSSDVAHLPLLQNLSLAANQISGPIPPQISNLYELRHLNLSNNVFNGSFPDELSSGLVNLRVLDLYNNNLTGDLPVSLTNLTQLRHLHLGGNYFSGKIPATYGTWPVLEYLAVSGNELTGKIPPEIGNLTTLRELYIGYYNAFENGLPPEIGNLSELVRFDAANCGLTGEIPPEIGKLQKLDTLFLQVNAFTGTITQELGLISSLKSMDLSNNMFTGEIPTSFSQLKNLTLLNLFRNKLYGAIPEFIGEMPELEVLQLWENNFTGSIPQKLGENGRLVILDLSSNKLTGTLPPNMCSGNRLMTLITLGNFLFGSIPDSLGKCESLTRIRMGENFLNGSIPKELFGLPKLSQVELQDNYLTGELPISGGGVSGDLGQISLSNNQLSGSLPAAIGNLSGVQKLLLDGNKFSGSIPPEIGRLQQLSKLDFSHNLFSGRIAPEISRCKLLTFVDLSRNELSGDIPNELTGMKILNYLNLSRNHLVGSIPVTIASMQSLTSVDFSYNNLSGLVPSTGQFSYFNYTSFVGNSHLCGPYLGPCGKGTHQSHVKPLSATTKLLLVLGLLFCSMVFAIVAIIKARSLRNASEAKAWRLTAFQRLDFTCDDVLDSLKEDNIIGKGGAGIVYKGTMPKGDLVAVKRLATMSHGSSHDHGFNAEIQTLGRIRHRHIVRLLGFCSNHETNLLVYEYMPNGSLGEVLHGKKGGHLHWNTRYKIALEAAKGLCYLHHDCSPLIVHRDVKSNNILLDSNFEAHVADFGLAKFLQDSGTSECMSAIAGSYGYIAPEYAYTLKVDEKSDVYSFGVVLLELITGKKPVGEFGDGVDIVQWVRSMTDSNKDCVLKVIDLRLSSVPVHEVTHVFYVALLCVEEQAVERPTMREVVQILTEIPKIPLSKQQAAESDVTEKAPAINESSPDSGSPPDLLSN
Turning to B2, the percent co-immunoprecipitated in assay [11] worked out at 10%.

One may read the Kd as the free concentration of one partner at which half of the binding sites on the other are occupied at equilibrium, for simple one-to-one binding.

The values above are taken from article PMC2974754 (The Plant journal : for cell and molecular biology, 2010).
